Measurements taken from the supplement of paper PMC9732359.
± gives the uncertainty stated by the source.

Experiment: protein stability index of a GFP-peptide fusion (yeast GPS) (PSI 1-4); higher = more stable; sorted into four equal gates, so the index is relative within each strain
Summary of the method: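 Tiled 17-residue peptides from yeast proteins were fused downstream of GFP on a plasmid that also expresses Cherry, and the pooled library was carried in yeast. Mid-log cultures grown in leucine-free medium were sorted into four equal gates by GFP/Cherry fluorescence ratio. Plasmids from each gate were PCR-amplified and Illumina-sequenced, and reads were assigned to strains by barcodes. Each peptide's protein stability index is the sum, over gates, of the gate's read frequency multiplied by its gate number.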

Row | Sequence | protein stability index (doa10∆) | protein stability index (pdr5∆) | protein stability index (ubr1∆) | protein stability index (san1∆)
1 | QKKATMSAEEALVYSYI [RPC34] | 1.43 ± 0.14 | 1.08 ± 0.099 | 1.36 ± 0.22 | –
2 | DSTNLSDDAAQFMKRFP [ECM29] | 2.65 ± 0.11 | 2.79 ± 0.073 | 3.06 ± 0.1 | 1.45 ± 0.092
3 | KRKKEANEEPNTENVES [ITC1] | 3.1 ± 0.062 | 2.74 ± 0.046 | 2.65 ± 0.034 | 2.78 ± 0.07
4 | KLLKSLKNTKYFQQTTI [PRP8] | 2.12 ± 0.076 | 2.7 ± 0.085 | 2.59 ± 0.064 | 2.34 ± 0.068
5 | EAKSFQDEAELVEEKTP [RPC82] | 3.53 ± 0.12 | 3.46 ± 0.14 | 3.5 ± 0.1 | 3.51 ± 0.14
6 | KEPVALIETVRQMKDVN [RPN2] | 3.36 ± 0.059 | 3.41 ± 0.067 | 3.31 ± 0.041 | 3.15 ± 0.051
7 | VSIKDSTGCVVGLSQPD [YMR129W/POM152] | 2.09 ± 0.047 | 2.32 ± 0.058 | 2.28 ± 0.036 | 2.05 ± 0.066
8 | DQSISKLQSWDKVSSCF [NNF1] | 1.51 ± 0.072 | 1.59 ± 0.069 | 1.82 ± 0.053 | 1.42 ± 0.1
9 | LLYLRLKNIYVSADDFV [PRP8] | 1.26 ± 0.052 | 1.39 ± 0.054 | 1.16 ± 0.046 | 1.27 ± 0.097
10 | VTNDDKSDDDDHTVDEI [SRB8] | 2.67 ± 0.077 | 2.8 ± 0.085 | 3.01 ± 0.045 | 3.07 ± 0.094
11 | IVVATEHNPSAHTASVG [COR1] | 2.7 ± 0.07 | 2.46 ± 0.088 | 1.77 ± 0.037 | 2.27 ± 0.06
12 | ENQPFHGIKDIPIGHVH [AAR2] | 2.79 ± 0.078 | 2.98 ± 0.086 | 2.67 ± 0.092 | 2.89 ± 0.084
13 | FVCLSCSHIFTSDQKNK [RPB9] | 2.43 ± 0.082 | 2.28 ± 0.093 | 2.55 ± 0.066 | 2.04 ± 0.11
14 | NYNSTSRSTEKKNDMNT [SIR4] | 2.33 ± 0.061 | 2.48 ± 0.058 | 2.55 ± 0.049 | 2.61 ± 0.079
15 | GGKIINKLGNDPSLNLK [BRR2] | 2.27 ± 0.059 | 1.76 ± 0.073 | 2.16 ± 0.057 | 1.91 ± 0.072
16 | KEDSTIQDSNGDVKNME [SWI3] | 3.09 ± 0.11 | 3.38 ± 0.087 | 3.17 ± 0.058 | 2.71 ± 0.093
17 | DLKNTRMKSITSTSQKI [SNF5] | 3.23 ± 0.082 | 3.14 ± 0.074 | 3.08 ± 0.05 | 3.17 ± 0.045
18 | YLAKLSKQLSLEEKKKR [IRR1] | 2.65 ± 0.098 | 2.75 ± 0.085 | 2.86 ± 0.085 | 2.44 ± 0.11
19 | EEDFYTVVGNASFGKNL [DSN1] | 1.99 ± 0.12 | 1.38 ± 0.25 | 3.12 ± 0.14 | 2.9 ± 0.23
20 | SNGGNNMLPQRQSSVGS [SNF2] | 1.76 ± 0.067 | 2.18 ± 0.097 | 2.55 ± 0.045 | 2.19 ± 0.076
21 | DWNKRFSHLAGGKIINK [BRR2] | 2.84 ± 0.075 | 3.33 ± 0.14 | 3 ± 0.089 | 3.12 ± 0.2
22 | AAGVERLIFYPDEYEQL [PRE3] | 2.96 ± 0.14 | 2.86 ± 0.13 | 2.69 ± 0.16 | 3.1 ± 0.093
23 | LNDRKVLFAAYKVEHPF [RPB11] | 1.72 ± 0.055 | 2.23 ± 0.058 | 2.27 ± 0.051 | 2.03 ± 0.084
24 | SVKKAGASINSMKANTS [ARP7] | 2.07 ± 0.052 | 2.46 ± 0.05 | 2.25 ± 0.037 | 2.42 ± 0.054
25 | WLKNKFAEENITHKLTK [BRR2] | 3.13 ± 0.085 | 3.03 ± 0.06 | 3.01 ± 0.078 | 2.85 ± 0.047
26 | SVLQLFQSVQLNINNPN [SMC2] | 1.88 ± 0.049 | 1.89 ± 0.045 | 1.48 ± 0.04 | 1.68 ± 0.058
